These results are taken from a protein production outcome set (Wang et al. 2014).

The nature of this data set: label from the status in PepcDB records.

As for “MEATAVNPSIVTASRTVQPYRRLSTLSLRFPTYRNKRVSPFTLTITRCSTTKSREAGQDSSISLKRGLVFDLGVSKDSWHSEEIGSPVVKRFLSDNEERWYMWYHGSSKQNPVSDSIGLAVSNNGIHWERGNGKVESSEDVGLVMSCGEDWWGFDTASVRPGEVVIMSSSKVRANSSVYWMYYTGYTKETVEFQSQDFTSVLGNPERFHLCDENAEKSRVYYRSLPGLAISQDGRHWARIEGEHHSGALFDVGSEKDWDFLYIASPHVVFHGDGDLRMYYHSFDEKTGEFCIGMARSRDGIKWLKLGKILGGRKSEKDGLGFFDELGGRYPCVTRNKRDESYVMAYEGVDRTGKTSIGFAVSKDGIKDWKRVQDEEAVIAVGEGGAWDNEGVGCPYLIEMDGDSDHQWRLYYRGVGNGGRTAMRGEQFELEEDRDGPLELLQSLRSKATELLLREEWEESIKVYTEFIDLSRRQVSSTGGSDPDPDSIAKLRKSLCLALCNRAEARARLRDFLEAMRDCDQALEIEKTHFKTLLCKGKVLLGLSKYSLALECFKTALLDPQASDNLETVTVYIEKCKKLEFQAKTGAFDLSDWILSEFRGKCPELAEFIGSIEIKKSELSGRGLFATKNIVAGTLVLVTKAVAIERGILGNGECGEKAQLIMWKNFVEEVTESVRKCGRTRRVVSALSTGQGEDSLEIPEIALFRPDEAFETCGDWKQSLDTEKLLSILDVNSLVEDAVSGKVMGKNKEYYGVGLWTLASFINHSCIPNARRLHVGDYVIVHASRDIKTGEEISFAYFDVLSPLEKRKEMAESWGFCCGCSRCKFESVLYATNQEVREFEMGLERGVDAGNAVYMVEEGMKRWKVKGKDKGLLRASYWGVYDEIYNSERLMKRWGRKIPTMEVVVDSVSDVVGSDERLMKMAVEGMMKKHGGFSNIVEMEKIMKLGKGVYGKVVSKKKAMKTLLGIE”, the protein production entry is on record as “failed”.

For the sequence “MEAWIFEIMRAVGRFFLHPAVYVFLISSIFVGYLRMLRERKDFSFKVYDIWFELRTSLLAGVKYGLIVSIITIGLGLVVSKASLWAILLWTLLFGLTAMYRYLSAAYTFSVAIVCVLLSSKLPVSFLQLGEGEENTIVSLAILLGIMLVVEGLLISKNAVGYSTPKIRKGKRGLKIGLHESKRLWIVPIFILVPGEAVTQFISWWPVVSIGSHTYSLFLVPFLIGFMRRIRSYEPTEALLFTGRRVYGLAGLVLVLGIASYWWHVLAIIAMGVAMLGRFTISMQEKIADETRPAYFAARNDGLVVLDTIPNTIGAELNLLPGEMITKVNGVIPRSAEEFYDALQTKTTGAFCKLEVLDTNGELRLAQTALYAGGHHELGIVFVQQEHEWDSEAM”, the protein production result is reported as “failed”.

As for “MECAEKVEAEIPGQAGRRAGKPSRTYYLEVYGCSLSEFDALIMASRLEEAGYRRVARPEDADVILVNTCAVRLDTEQRIAERLEKLRLQLPDRKYVVAGCLVKARPGLVARLVPEASLLAPQAVERVLDAVDALESGRRLVVLDGRRDTRSMPQLPITDAVVTVMIQEGCLGDCSFCITKVARRQVRSYSPRVIVERVREAVEKGAREIRLTGTDVAVYGVDLPGKPNLADLVAAILEKVEGDYRIRVGMMTPDQVEPYLDSLLDVYRDERVYKYFHLPVQSGDDEVLKIMKRNYTVSEYKAIHRRIKSRFPDAMIATDIIVGHPGETWEAFWNTVRLVEELRFEKVHLAQYSLRPHTEAASMEQVPDSVKKERSRILGKIVAEIGLEINGSYVGRRVRALVTERSWREGSMTGRLDNYTPIILPYEERAMGRWVYAEVEEATFFDLRSSKFEPAPLEHHHHHH”, the protein production result is recorded as “failed”.

As for “MEDFYLNSRGLAGYFEAQWFDKFVEDKQVDAITSESKLVPLSFAKSSHCSQVADFITQAVSKNGKPPHALLGVGAALGRNYYELVQRLDSLKQATLVEPSGMLLNGLKQLLVEEQQVELTYIHGLNTLKTVEVDNRELVQNCAHVDLELINQPLEKDTVSKFYDLVVCLNVLDQCESPLRVINALKQATQIGGVLVVSCTYQWNAKHIKDRAEAVDDIKAYFGEDWRFVSEAEHEYRMRFNERYAMQFLSHVVAYVRTT”, the protein production entry is given as “failed”.

“MEDGIENTSPFNGNGESGFFKLPDREILESFRLQKVFPDSPFGFPSGHVALTTALWGGASRVFNSRTAGRLAPMVVLLMAFSRMYLGRHFLGDVIGGAALGLTLLVVFTYFLKSPLKDDFFEKENFKLAFRQKNLFFYSAMFAVPVVFVSLSLISGEVAGFFLGTNTAYLLIIRKGLPEDEGSTGQRALRVFITLMMFGLSALVLDAGFGIIGIAGYPDDTLIEFLKSFIPAFTIWISVSICIKLGLYNIASTEQIE”: the protein production entry is on record as “failed”.

For the sequence “MEDHHHLPENLKPFFHRATEAQERLAKLEAALASTKTDIPDAKLVEENKQLQSKLEEANATVKQEQTKVKDLTIENAKHKYRILHLVRALKDADQKLERLSK”, the protein production entry is “failed”.

As to “MEDIIVVENLVKKFGDFEAVKGVSFSVKKGEIFAFLGPNGAGKTTTIHMLTTLLKPTSGKAWVAGHDVLKEPREVRRKIGIVFQDQSLDRELTAYENMYIHGKIYGYGGEKLKKRILELLEFVELLEFKDKPVKTFSGGMARRLEIARSLIHEPEVLFLDEPTIGLDPHTRAHMWEYISKMKKEHNMTIFLTTHYMDEAEQLADRVAIIDHGKIIALGTPTELKRMVGKEIIYVRFSEAVECLEGDFIESCRKLPDGRLELNVEDSGRAIPKIFELAQQKGLKIEEITYHKPTLNDVFLHLTGRELREEGPENSFKTMARMRMRMRR”, the protein production entry was “not failed”.

As to “MEDPLGRLEWIKFLSAFYDKEDKAENYFNQQVSKVMATENKVSSLKKPKVAFGMVDNGKVYIPAKNSYAAKMVDMAGGDYIFKDLNNKSGYITLEDFYSKSKDADVLIYSSSKEYTPSLKSMLSAAPILKTIKPVKNKKVWCFGKDYYQAIDKTDEIIEDLASIFHPESFKGLEHHHHHH”, the protein production entry is “failed”.

For the sequence “MEDSGAILCQISIFKDMLDQVNREIEANIQVTREIESQIGACSEIESSLSLKEPELTRSFLASQFEISGLISVTADSRNSLKLLEDEICCLRSEHSELITKTNREAVNINNCIVLDFV”, the protein production result is recorded as “failed”.

For the sequence “MEDSGKTFSSEEEEANYWKDLAMTYKQRAENTQEELREFQEGSREYEAELETQLQQIETRNRDLLSENNRLRMELETIKEKFEVQHSEGYRQISALEDDLAQTKAIKDQLQKYIRELEQANDDLERAKRATIMSLEDFEQRLNQAIERNAFLESELDEKENLLESVQRLKDEARDLRQELAVQQKQEKPRTPMPSSVEAERTDTAVQATGSVPSTPIAHRGPSSSLNTPGSFRRGLDDSTGGTPLTPAARISALNIVGDLLRKVGALESKLASCRNLVYDQSPNRTGGPASGRSSKNRDGGERRPSSTSVPLGDKGLGKRLEFGKPPSHMSSSPLPSAQGVVKMLL”, the protein production result is given as “failed”.

On to “MEEASEGGGNDRVRNLQSEVEGVKNIMTQNVERILARGENLEHLRNKTEDLEATSEHFKTTSQKVARKFWWKNVKMIVLICVIVFIIILFIVLFATGAFS”, for which the protein production entry is “failed”.

Consider “MEEEEARQVVIDNDLKKKIKETVKKILKRSSLLEITEIKAREEASSELNLDLSRDPYKIIVREAVDSFIEKAIMTIDTEMGKLHTQIVEDVDGEVTENATKTTTKKKKKKKAKKKVEEEESSPA”, for which the protein production result was “failed”.

“MEEGKKMKRIIGMIVSLALLAGLLAGCSTSATGSNINTPAAQAEKTPGAGGSGAEEAAWPRTIVDATGKEITLTEQPQRIAILHSLYLEYFLALGTPPIASAGASTGDAMKALGEWETLKPYAGTAKIIDLGSARDLNLEAILGANPDVIVTFKGQGNLDKIYEQLEQIAPVILVDFSAPWQEQILACAEIVNKEADAQKLIKEIEDSVQSAKEKLSRHQDKTIAIFRTDGGKAFVTRGNKDYYDTFGIAKPEGYPDDYETLSLEAVAEMNPDYIIFQDFITTSQAFVKTQEASSVWQAMEAVKKGQVVYFDDSLNTFGPLATKLTAEKLIQIISD”: the protein production entry is “failed”.

Take “MEEKRLVIVGTAHVSKRSVEEVAEVIEREKPDAVAVELCPRRYHALVHGQREEISVADVIRKGNVFMLLFQLILAYFQRKVGEETGVKPGSEMLAAIEKAREAGADVLLIDRDIGLTFTRFWQKLTFVEKIKLIFHLVRSTFSGDEIEVDEMLEEDVLDMLVKEFRKISPNAAKVLIDERDVYMAANLLNALSRYNRIVAVVGAGHRKGIEEALLKLKENPV”: the protein production result is “failed”.

As to “MEEKSKYLSLVGAGALIGSISTVALLKLLSRSSLKQLNENPETNFLAGNGIESETRPDTVANGQDLLKDEIVSEHLTRNIQFFGLESQHKVTGSYVVVIGLGGVGSHAASMLLRSGVGKLLLVDFDQVSLSSLNRHAVATRADVGIPKAMCLKKHFSSIFPECHIEAKVMLYDSSSEEEILSGKPDFVLDCIDNIDTKVGLLAACVKRGLKVLSATGAGARADPTRIRVADIRESTIDPLSRSVRHRLRRKHGIEGGIPVVFSLEKPKAKLLPFEGTNGEDENPLDYQVVPGFRVRIIPVLGTIPAIFGQIMASYVITQLAGVQVQMEPIVNLDLDHYRLLHQRLIEHEETVYGTSAEVEVDVEEVMYIVKELWHGRSARDETAKDVGRGMWRAMNELMLVRWDAKKPATVSNLVLLKFKEADEHETKTLEEVKESETEFFERVSCVLKKAELDFYG”, the protein production entry is listed as “failed”.

“MEELDEKLANRVQVSKRAVAKIVQVIDRLMQRNEKITHVLKGDSLASAGSGSGAGAGGEEEQQQASGDAETTTSSAGVHALEETLKQTHIEIMSENHKLQNLNTSLHEKFHTMSLKMKEYQDAHTAKETENAELKNQIDELQYDLEKIHCRNDKLENHLAEAIEKLKAYHQIYGDPNKSTNSAKTPTTTGSGGATTSVNSQLLEELQKELEEYRELAN”: the protein production entry was “failed”.

Turning to “MEEMGSRSDTIMVASLNRETKEIKLVSVYRDTLLQLSDGTYNKANAAYAYGGEEEAVAMLNKNLDLNIEHYVSVDFSVLVHVIDALGGIDINVEEAENGMDIIPYLNNYVVEVIKNTGVDSAPFTQLGQQHLNGVQATAYARLRYGGGDDYKRTERQRQVLEQIAIKAQKAKLSTINKIIDKVFDNVKTNFTLTETIAYAKDVKSYIFGETQGFPYESTTADLDVGNSVVATDLASDVTKLHQFLFGENDYTPSSTVQSISEDISNSTYDTGESYDTEYDEYGYSQDYSGYDSGYTDNSYGTGGYQDSGYGDGSSGNGYTEDTGGDYVPPSDGGGTDSGSSDSNSQIPDTGTGDSGDTGGESLELEHHHHHH”, the protein production result is on record as “not failed”.

As for “MEEVYHDEPEKFNHILHLIRDYFNHRDDRARITACMGELMRDHLNLLVRFFDFFPAEASEGLAQLQTIAATSVSPDSTIDDAVSYINTVKEAFHDEPAKYYEFFQLFYDIRYRLIDVAGGITRVEELLKAHKNLLVRLNAFLPPEAQRILHLKIEQRAASDINKRKRVASFIGKLKERFQGDDRHVYESFLEILTMYQEGNKSVNDLYQEVGFLVGTLWLDYTFS”, the protein production entry is listed as “failed”.

Take “MEEWSASEACLFEEALEKYGKDFNDIRQDFLPWKSLTSIIEYYYMWKTTDRYVQQKR”: the protein production entry was “not failed”.

Turning to “MEFDKSVQNYLIGANFSSGLVLDISKKENYILDRISILEQLSKDKKIIHLGCCDHIPLIQNKIENNTWLHSRLCSNSKRCIGVDINKDGIKYLKNNLGYEDVLCGDIIEEELNAIKEEHWDYMILGEILEHIDNPCLFLSDVQKKYHGIVDRLVITVPNALSYQNMKYTFLNKEYINTDHRYWFTPYTLGKIVTLAGMEVEKFFFCVPFPRDNGVFYALNPKSILFDFICKRYPPTRETLLMVAVV”, the protein production entry is “failed”.
